This assay addresses T1, APP770-YFP (human, UniProt P05067-1 18-770).
T1 construct: human amyloid precursor protein, the isoform named APP770; Plasmid was a gift (Prof. Goldstein, UCSD); the construct is not described further; also called APP-YFP; source: HEK293, transfected (APP770-YFP pcDNA3.1), in lysate or in living cells
The assay is described as follows: FRET or BRET; FRET acceptor bleaching in co-transfected HEK293 cells (YFP and CFP fusions); FRET efficiency from photobleached regions of interest; the negative control's value used as cut-off. The following applies: partners not purified.

This note sets out measurements from publication PMC3660575, “The Intracellular Domain of Sortilin Interacts with Amyloid Precursor Protein and Regulates Its Lysosomal and Lipid Raft Trafficking” (PLoS ONE, 2013).

T1 sequence (P05067 18-770): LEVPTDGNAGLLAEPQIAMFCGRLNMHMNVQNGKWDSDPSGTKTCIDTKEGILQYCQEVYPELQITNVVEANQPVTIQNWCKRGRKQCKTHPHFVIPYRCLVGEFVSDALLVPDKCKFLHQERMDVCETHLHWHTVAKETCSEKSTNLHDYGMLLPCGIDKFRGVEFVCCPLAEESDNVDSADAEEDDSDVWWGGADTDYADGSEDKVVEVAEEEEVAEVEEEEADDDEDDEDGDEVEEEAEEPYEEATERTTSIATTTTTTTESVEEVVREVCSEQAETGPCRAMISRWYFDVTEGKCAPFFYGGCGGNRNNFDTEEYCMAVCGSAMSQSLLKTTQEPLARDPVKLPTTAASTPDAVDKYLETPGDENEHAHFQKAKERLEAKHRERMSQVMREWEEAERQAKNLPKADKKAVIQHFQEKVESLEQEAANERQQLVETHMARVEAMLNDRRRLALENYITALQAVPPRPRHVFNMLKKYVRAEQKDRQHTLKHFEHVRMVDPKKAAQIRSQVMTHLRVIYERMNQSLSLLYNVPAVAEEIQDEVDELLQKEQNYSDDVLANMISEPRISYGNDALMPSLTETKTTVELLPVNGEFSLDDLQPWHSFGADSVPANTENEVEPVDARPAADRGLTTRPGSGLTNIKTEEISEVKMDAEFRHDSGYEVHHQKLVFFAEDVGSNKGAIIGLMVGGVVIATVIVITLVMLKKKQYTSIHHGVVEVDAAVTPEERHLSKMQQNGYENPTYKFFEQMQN

B1: Sort 756-831-CFP (domain or fragment, human, UniProt Q99523-1 756-831, looked up)
chain: SVPIILAIVGLMLVTVVAGVLIVKKYVCGGRFLVHRYSVLQQHAEANGVDGVDALDTASHTNKSGYHDDSDEDLLE
notes: The forward primer adds a start ATG before the stretch; source: HEK293, transfected, in lysate or in living cells; not shown: CFP (vector pECFP-N1), C-terminal, kept
Turning to B1, the FRET efficiency stood at 40%.
